Measured values as given in patent publication US20120258099.
Changes are numbered by the printed parent chain.

Key:
[1] = system: GST [GST: P08515]
[2] = system: T1, GST-TRIPE32G
T1 sequence: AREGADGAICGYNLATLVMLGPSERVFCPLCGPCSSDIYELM

[3] = system: T2, GST-TRIPT16M/L17S
T2 sequence: T1 sequence with T16M, L17S, G32E

[4] = system: T3, GST-TRIPα
T3 sequence: T1 sequence with G32E

GST [GST: P08515], sequence (P08515 whole entry): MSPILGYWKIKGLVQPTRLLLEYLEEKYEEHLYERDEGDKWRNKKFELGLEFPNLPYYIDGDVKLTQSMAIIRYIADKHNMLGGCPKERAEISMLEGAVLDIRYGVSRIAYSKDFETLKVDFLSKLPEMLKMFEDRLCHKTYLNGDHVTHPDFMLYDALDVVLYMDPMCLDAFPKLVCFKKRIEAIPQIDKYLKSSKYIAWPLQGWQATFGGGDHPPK

MBP-Tgat (aa 1-255)
Tgat GEF activity on RhoA, kinetics fluorescence assay (kobs) [1]: GST alone (not shown) ... had no effect | Tgat GEF activity on RhoA, kinetics fluorescence assay (kobs) [2]: inhibited Tgat GEF activity in a dose-dependent manner | Tgat GEF activity on RhoA, kinetics fluorescence assay (kobs) [3]: inhibited Tgat GEF activity in a dose-dependent manner | Tgat GEF activity on RhoA, kinetics fluorescence assay (kobs) [4]: GST-TRIPα, at the same concentrations, had no effect
